Source: patent US20240239907A1 (EDELWEISS IMMUNE, published 2024)
Values belong to the binder of their own block, whether it stands above or below them.

How the values were obtained:
human CXCR6 [1] = biological target: T1, human CXCR6 (human, UniProt O00574 1-342); test: screening on cells overexpressing CXCR6, one single concentration, yes/no
T1 construct: also called hu-CXCR6; wild type human CXCR6

cynomolgus monkey CXCR6 [2] = biological target: T2, cynomolgus monkey CXCR6 (cynomolgus monkey, UniProt Q9BDS6 1-343); test: as above
T2 construct: also called cyno-CXCR6; cyno monkey CXCR6
T2 sequence: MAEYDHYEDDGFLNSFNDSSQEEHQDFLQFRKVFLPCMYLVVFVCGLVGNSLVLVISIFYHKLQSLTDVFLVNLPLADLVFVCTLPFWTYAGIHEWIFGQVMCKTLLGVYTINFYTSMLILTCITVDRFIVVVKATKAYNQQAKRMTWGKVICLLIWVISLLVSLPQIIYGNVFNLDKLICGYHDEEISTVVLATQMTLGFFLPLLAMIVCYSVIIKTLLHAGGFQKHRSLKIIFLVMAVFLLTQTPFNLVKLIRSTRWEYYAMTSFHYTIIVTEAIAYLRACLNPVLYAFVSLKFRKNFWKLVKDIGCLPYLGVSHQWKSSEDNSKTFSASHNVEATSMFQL

[3] = biological target: T3, N-terminal fusion protein linking the extracellular N terminus of human CXCR6 and the Fc region of human IgG1 (human, not fully specified); test: antibody pre-incubated with N-terminus-Fc fusion before staining human CXCR6 cells, flow cytometry (FIG. 12B)
T3 construct: not shown: Fc region of human IgG1
T3 chain: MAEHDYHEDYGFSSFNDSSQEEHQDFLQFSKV
Description: Three candidate antibodies that bind only to human CXCR6 and three candidate antibodies that bind to both human and cyno CXCR6 were further analyzed to locate their epitope residues. An N-terminal fusion protein was generated by linking the extracellular N terminus of human CXCR6 and the Fc region of human IgG1. Prior to staining cells over-expressing human CXCR6, the candidate antibodies (1 μg/ml) were pre-incubated with the N-terminal fusion protein (25 μg/ml) for 15 minutes at room temperature. A commercial antibody (R&D system, Minneapolis, MN) that only binds to human CXCR6 but not cyno- or mouse-CXCR6, was used as a control antibody.

cynomolgus monkey CXCR6 [4] = biological target: T2, cynomolgus monkey CXCR6; test: description of the chimeric clones used in the ADCC example
human CXCR6 [5] = biological target: T1, human CXCR6; test: flow cytometry on human CXCR6 over-expressing cells, no huCXCL-16 (FIG. 16)
Description: (§1) After washing and staining with secondary antibody, cells were analyzed by flow cytometry. The ED₅₀ for huCXCL-16 binding to human CXCR6 is 10-50 ng/ml. Thus, 1,500 ng/ml huCXCL-16 is an overwhelming concentration for competing with chimeric Genovac2-C1. In the absence of huCXCL-16, the ED₅₀ for chimeric Genovac2-C1 binding to human CXCR6 was 0.5 μg/ml (FIG. 16). In the presence of huCXCL-16 (1,500 ng/ml), the ED₅₀ for chimeric Genovac2-C1 binding to human CXCR6 was 1.5 μg/ml (FIG. 16). Accordingly, the human/mouse chimeric mAb retains the binding specificity and affinity in the presence of CXCL-16.

human CXCR6 [6] = biological target: T1, human CXCR6; test: flow cytometry on human CXCR6 over-expressing cells pre-incubated with competitor huCXCL-16 at 1,500 ng/ml (FIG. 16)
Description: as §1

cynomolgus monkey CXCR6 [7] = biological target: T2, cynomolgus monkey CXCR6; test: flow cytometry on cells overexpressing CXCR6, serial dilutions of antibody (FIG. 11)
Description: Wild type C57BL/6 mice were immunized and boosted with a full-length human CXCR6-vector. Prior to immunization, the vector was tested for cell surface expression of native human CXCR6 on transfected mammalian cell lines by flow cytometry to ensure a successful immunization and screening. Genetic immunization was performed by ballistically delivering DNA-coated gold particles into the skin of wild type C57BL/6 mice to elicit a target-specific immune response. After the serum test showing satisfactory titer of antibody binding to both human CXCR6 and cyno monkey CXCR6, mice were sacrificed. A single B cell platform was used to sequentially screen bone marrow antibody-producing plasma cells for binding to both human and cyno monkey CXCR6. The conventional hybridoma technique was used on splenocytes and lymph node cells. […] After sequencing the VH and VL, clones with distinct CDRs were further expressed as full-length murine antibodies or human chimeric antibodies. […]
Cells overexpressing human-CXCR6 (hu-CXCR6), cyno monkey CXCR6 (cyno-CXCR6) or mouse CXCR6 were cultured in DMEM medium containing 10% FCS. […] After two rounds of washing with PBS/0.5% BSA buffer, cells were further stained with fluorescence dye-labeled secondary antibody. After two more rounds of washing, cells were resuspended in PBS/0.5% BSA, fixed, and collected by flow cytometry and analyzed.

T1 sequence (O00574 whole entry): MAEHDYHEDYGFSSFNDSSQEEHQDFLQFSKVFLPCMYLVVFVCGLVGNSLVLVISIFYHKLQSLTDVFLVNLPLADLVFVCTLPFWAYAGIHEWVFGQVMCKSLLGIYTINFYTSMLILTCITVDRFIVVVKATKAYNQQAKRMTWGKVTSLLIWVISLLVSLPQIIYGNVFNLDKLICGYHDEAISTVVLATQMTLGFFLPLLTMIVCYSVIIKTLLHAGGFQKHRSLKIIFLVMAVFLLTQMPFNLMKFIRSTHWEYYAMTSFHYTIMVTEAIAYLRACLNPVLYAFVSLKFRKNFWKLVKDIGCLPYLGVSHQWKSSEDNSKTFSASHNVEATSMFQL

B1: Beacon2-G5 (antibody, V domains shown)
VH: EVQLVESGGDLVKPGGSLKLSCAASGFTFSSYGMSWVRQTPDKRLEWVATISSRGSYTYYPDSVKGRLTISRENAKNTLSLQMSSLKSEDTAMYYCARRVFPYWFFDVWGAGTTVTVSS
VL: DIVMTQSHKFMSTSVGDRVSITCKASQDVSTAVAWYQQKSGQSPKLLIYSASYRYTGVPDRFTGSGSGTDFTFTISSVQAEDLAVYYCQQHYTTPYTFGGGTKLEIK
notes: Mouse-derived
binding result (human CXCR6 [1]): binds
binding result (cynomolgus monkey CXCR6 [2]): binds
binding result [3]: no binding

B2: chimeric Genovac2-C1 (antibody, V domains shown)
VH: DVKLVESGGGLVKPGGSLKLSCAASGFTFSSYTMSWVRQTPEKRLEWVATISSGGSYTYYPDSVKGRFTISRDNAKNTLYLQMSSLKSEDTAMYYCTRGGGNYPFWFFDVWGAGTTVTVSS
VL: DIQMTQSPASLSASVGETVTITCRASENIYSYLAWYQQKQGKSPQLLVYNAKTLAEGVPSRFSGSGSGTQFSLKIKSLQPEDFGSYYCQHHYGIPRTFGGGTKVETK
notes: also called Genovac2-C1 human chimeric mAb; human/mouse chimeric mAb
binding result (cynomolgus monkey CXCR6 [4]): binds
EC50 (human CXCR6 [5]): 0.5 µg/mL
EC50 (human CXCR6 [6]): 1.5 µg/mL

The remaining lines, values ahead:

binding result (human CXCR6 [1]): binds
binding result (cynomolgus monkey CXCR6 [7]): binds
B3: Genovac1-G2 (antibody, V domains shown)
VH: DVQLQESGPGLVKPSQSLSLTCSVTGYSITSGYYWNWIRQFPGNKLEWMGYIRYDGSNNYNPSLKNRISITRDTSKNQFFLKLNSVTTEDTATYYCARDGYSTYFDYWGQGTTLTVSS
VL: DIQMTQSPASLSASVGETVTITCRASENIYSYLAWYQQKQGKSPQLLVYNAKTLAEGVPSRFSGSGSGTQFSLKINSLQPEDFGSYYCQHHYGTPWTFGGGTKLEIK
notes: Mouse-derived

binding result (cynomolgus monkey CXCR6 [7]): binds
B4: Genovac2-C1 (antibody, V domains shown)
VH: DVKLVESGGGLVKPGGSLKLSCAASGFTFSSYTMSWVRQTPEKRLEWVATISSGGSYTYYPDSVKGRFTISRDNAKNTLYLQMSSLKSEDTAMYYCTRGGGNYPFWFFDVWGAGTTVTVSS
VL: DIQMTQSPASLSASVGETVTITCRASENIYSYLAWYQQKQGKSPQLLVYNAKTLAEGVPSRFSGSGSGTQFSLKIKSLQPEDFGSYYCQHHYGIPRTFGGGTKVETK
notes: Mouse antibody
